For the data set, the system named is Cc1cc(=O)oc2cc(NC(=O)[C@@H]3CCCN3C(=O)CNC(=O)OCc3ccccc3)ccc12. Kind of data set: purified protein.

A word on the Km: it is the substrate concentration at which the rate is half of its maximum. Take “prolyl oligopeptidase of 80 kDa (Tc80) (Trypanosoma cruzi)”: the Km stood at 5.9 µM.

The values are drawn from publication PMC9961625, “Anti-Trypanosoma cruzi Properties of Sesquiterpene Lactones Isolated from Stevia spp.: In Vitro and In Silico Studies” (Pharmaceutics, 2023).
